{"source": "patent US8563516B2", "about": "“Foxp3 peptide vaccine” (OncoTherapy Science, Inc., priority 2007, dated 2013)", "key": {"peptide pulsed T2 cells [1]": {"tested_on": "peptide pulsed T2 cells", "experiment": "CTL line induced with Foxp3-9-252-9V against peptide-pulsed T2 cells", "assay_type": "cell-based, human", "settings": "FIG. 7D, listed as Foxp3-9-252-9V", "protocol": "(§1) In FIG. 7C CTLs could be induced by stimulation with Foxp3-9-252 substitutions targeted HLA-A2 molecule. CTLs for all substituted peptides targeted HLA-A2 molecule were generated in the way as described in “Materials and Methods”. […] CTL line induced with Foxp3-9-252-9V peptide was used as responder cells. T2 cells incubated with Foxp3-9-252-9V (-solid circle-) or Foxp3-9-252-WT (-open circle-) peptide and without any peptide (-open square-) were used as stimulator cells in this assay (1×10^4 cells/well).\n(§2) On the other hand, the present inventers attempted the induction of CTLs using all substitutions restricted HLA-A*0201 including Foxp3-9-252-9V peptide. […] After CTL line induced by stimulation with Foxp3-9-252-9V was established by in vitro expansion, the CTL activity was determined by using stimulator cells pulsed with Foxp3-9-252-WT or Foxp3-9-252-9V peptide."}, "HLA-A2 molecule": {"target": "T1, HLA-A2 molecule (Homo sapiens, UniProt P04439, D140Y/D185E/D98H/E176V/E277Q/G131W/G231S/I119V/I121R/I166T/I218V/L300P/L318F/N151K/N90K/P208A/P217A/Q86G/Q94H/R138H/R169H/T345S)", "T1 construct": "peripheral blood mononuclear cells (PBMCs) isolated from normal volunteer (HLA-A*2402 and/or HLA-A*0201); endogenous in cells; host or cells: monocyte-derived dendritic cells of HLA-A*0201 volunteers; T2 cells as stimulators in the read-out", "experiment": "CTL induction with Foxp3-9-252 substitutions restricted HLA-A*0201", "assay_type": "cell-based", "settings": "FIG. 7C; for IFN-gamma production compared with the control: positive wells", "protocol": "as §1\nMonocyte-derived dendritic cells (DCs) were used as antigen-presenting cells (APCs) to induce CTL responses against peptides presented on HLA. DCs were generated in vitro as described elsewhere (Horiguchi S. et al. Cancer Res. 59:2950-6). Specifically, peripheral blood mononuclear cells (PBMCs) isolated from normal volunteer (HLA-A*2402 and/or HLA-A*0201) with Ficoll-Plaque (Pharmacia) solution were separated by adherence to plastic tissue culture dish (Becton Dickinson) so as to enrich them for the monocyte fraction. The monocyte-enriched population was cultured in the presence of 1000 U/ml of GM-CSF (R&D System) and 1000 U/ml of IL-4 (R&D System) in AIM-V medium (Invitrogen) containing 2% heat-inactivated autologous serum (AS). After 7 days in the culture, the cytokine-generated DCs were pulsed with 20 mcg/ml of the synthesized peptides in the presence of 3 mcg/ml of beta2-microglobulin for 4 hrs at 20 degrees C. in AIM-V medium. These peptide-pulsed DCs were then inactivated with mitomycin C (MMC) (30 mcg/ml for 30 mins) and mixed at a 1:20 ratio with autologous CD8+ T cells, obtained by positive selection with CD8 Positive Isolation Kit (Dynal). These cultures were set up in 48-well plates (Corning); each well contained 1.5×10^4 peptide-pulsed DCs, 3×10^5 CD8+ T cells and 10 ng/ml of IL-7 (R&D System) in 0.5 ml of AIM-V/2% AS. Three days later, these cultures were supplemented with IL-2 (CHIRON) to a final concentration of 20 IU/ml. On day 7 and 14, the T cells were further restimulated with the peptide-pulsed autologous DCs. The DCs were prepared each time through the same procedure described above. CTL activity was tested against peptide-pulsed A24LCL cells or T2 cells after the 3rd round of peptide stimulation on day 21.\n(§3) To examine the specific CTL activity, IFN-gamma ELISPOT assay and IFN-gamma ELISA were performed. Briefly, peptide-pulsed A24-LCL, T2 cell (1×10^4/well) or the cells endogenously expressing Foxp3 and HLA molecule was prepared as a stimulator cells. Cultured CTL lines in 48 wells were used as a responder cells. IFN-gamma ELISPOT assay and IFN-gamma ELISA were performed under manufacture procedure.\nas §2"}, "peptide pulsed T2 cells [2]": {"tested_on": "peptide pulsed T2 cells", "experiment": "IFN-gamma ELISPOT: CTL line induced with Foxp3-9-252-WT against T2 cells pulsed with substituted peptide", "assay_type": "cell-based, human", "settings": "FIG. 7A, listed as Foxp3-9-252-9V", "protocol": "IFN-gamma ELISPOT assay was performed using CTL line induced with Foxp3-9-252-WT peptide as responder cells and T2 cells pulsed Foxp3-9-252-WT or Foxp3-9-252-9V peptide as stimulator cells, respectively. T2 cells without peptide pulse were prepared as control. […] IFN-gamma ELISA assay was performed using CTL line induced with Foxp3-9-252-WT peptide as responder cells (1×10^5 cells/well) and Foxp3-9-252-WT (-solid circle-), Foxp3-9-252-9V (-open circle-) or HIV-A02 (-solid triangle-) peptide pulsed T2 cells as stimulator cells (1×10^4 cells/well). Peptide pulse of stimulator cells was conducted at 37 degree Celsius for 2 hours in each kind of peptide and peptide concentration.\nas §3\nAnd then the present inventers examined whether peptide-pulsed stimulator cells using these substitutions were recognized by CTLs generated with Foxp3-9-252-WT peptide."}}, "note": "“Also recorded” adds a separate entry of the source."}
{"sequence": "KLSAMQAHV (peptide vaccine) [SEQ ID NO 95]", "values": [{"measurement": "recognition of Foxp3-9-252-WT pulsed stimulator cells by CTLs induced with substituted peptide", "setting": "peptide pulsed T2 cells [1]", "result": "recognized stimulator cells pulsed Foxp3-9-252-WT peptide as equal to that pulsed Foxp3-9-252-9V peptide; also recorded: recognize stimulator cells coated with Foxp3-9-252-WT peptide"}, {"measurement": "CTL induction by stimulation with substituted peptide", "setting": "HLA-A2 molecule", "result": "CTLs were induced"}, {"measurement": "IFN-gamma production compared with the control", "setting": "HLA-A2 molecule; listed as Foxp3-9-252-9V", "result": "showed IFN-gamma production"}, {"measurement": "IFN-gamma production compared with the control", "setting": "HLA-A2 molecule; listed as Foxp3-A02-9-252-9V", "result": "peptide-dependent IFN-gamma production"}, {"measurement": "IFN-gamma production of Foxp3-9-252-WT induced CTLs against peptide pulsed T2 cells", "setting": "peptide pulsed T2 cells [2]", "result": "produced IFN-gamma; also recorded: recognize the cells presenting Foxp3-9-252-9V peptide on HLA-A2 molecule"}]}
